# Assay results as given in the RNAGym collection of RNA variant scans (doi:10.1073/pnas.2313332121).
# Variants at the floor of the assay were thinned out.
# B1: TPR 5TU (parent)
# chain: GGAUCUUCUCGAUCUAACAAAAAAGACAAAUCUGCCACAAAGCUUGAGAGCAUCUUCGGAUGCAGAGGCGGCAGCCUUCGGUGGCGCGAUAGCGCCAACGUUCUCAACUAUGACACGCAAAACGCGUGCUCCGUUGAAUGGAGUUUAUCAUG
# Variants of: B1
# Assay: polymerase ribozyme fitness, log enrichment relative to wild type (log ratio); higher = more active; in vitro selection for triplet polymerase activity
# Method in brief: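 Mutant libraries were PCR-built and transcribed for each subunit of a heterodimeric triplet polymerase ribozyme and selected for one round in triplicate at −7 °C, frozen, before gel excision of extended constructs and streptavidin-bead capture. Input and output libraries were Illumina-sequenced, keeping genotypes with ≥10 input reads and ≥1 read per output. Fitness is a logarithmic ratio of genotype to wild-type enrichment, in base 2, using inverse-variance-weighted replicate averages.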
row,Variant,polymerase ribozyme fitness (log ratio)
1,A16G G48U G133U,-3.99
2,A16G C116A,0.283
3,A16G U134A,-3.15
4,A16G U134G,-3.44
5,A16G A22U G94A,-0.896
6,A16G G42C C54G G70A C87A C99U A113C G141U U151C,≤ -4.2
7,A16C A52U C85G A122G G124C,≤ -4.2
8,A16G C43G C57U G84A C85A A91C U127C,≤ -4.2
9,A16C A73U G88C C95G A98U,≤ -4.2
10,A16U A47U U55A C87U,-2.97
11,A16G C35U,-1.36
12,A16U A52U G74A C87A A119U U148G,≤ -4.2
13,A16G A24U G46U C85G A106C U109A C114U C118G A120G,≤ -4.2
14,A16C A37C A40C C63U A64U C69G C76U G141C,≤ -4.2
15,A16G A17G A19C G50A,0.928
16,A16C C85U C95A C132U,-3.71
17,U15G C103A,-1.91
18,A16C A20U A28U C35A G50U G59C G84A C87G C96U C103A U148A,≤ -4.2
19,A16C A91C U101C,≤ -4.2
20,U15G G50C C95A C99U A120U,≤ -4.2
21,A16G C36U A49C G88A C93G A107U G140U G143C,≤ -4.2
22,A16U A30C A47G G58A U111A,≤ -4.2
23,A16C A21G C54A C95A,-3.07
24,A16C A40C G59A C93U A106G,-2.02

row,Variant,polymerase ribozyme fitness (log ratio)
1,A16G A20U C118U A137U,≤ -4.2
2,U15G G94C C96U U111A G152A,≤ -4.2
3,A16G A23G A37U G86A U135A,≤ -4.2
4,U15G G50U U61A C93G C105U A107G,≤ -4.2
5,A16U A19U A39U U61A A113G G128A G141C,≤ -4.2
6,A16U A17C G50A U56A C87U G88A G117U,≤ -4.2
7,A16U C51A A73G C85U A122C,≤ -4.2
8,A16U A19U A40G,≤ -4.2
9,U15G C51A C93A G124U U145A,-3.28
10,U15G U56G U77C C87G G94A U104G A106U C123U,≤ -4.2
11,U15G G46U G65A G68C C85U C116G,≤ -4.2
12,A16G G42A A52G C95U C96A C99G,≤ -4.2
13,A16C G42U U56C G81U C85G,≤ -4.2
14,A16G G81A G83A C93U G128C U134G,≤ -4.2
15,A16C U82G,-1.06
16,A16U A47C,-2.04
17,A16U C18A A40G G74A G80C G83U G86A A97U,≤ -4.2
18,A16C U44A C69G C75G A91U C114G G117C,≤ -4.2
19,A16G C18U C27U A28U A40C G50C U56A G84C C125A G143A U146G,≤ -4.2
20,A16U A106G U144A,-2.13
21,A16G C18U A30U C35U U55A G71C C93U A97C C116A G141U,≤ -4.2
22,A16G C93G,-4.02
23,A16C A49U C85A G126U U139G,-3.47
24,U15G U55G G71C C85U A142U C149U,≤ -4.2

row,Variant,polymerase ribozyme fitness (log ratio)
1,A16G A20U C32A U45A A47C G83C C93G G140A,≤ -4.2
2,A16C C32U C72G C75A G86C C87G C99U A107U A120U G124U,≤ -4.2
3,A16G C57A,-0.592
4,A16G U55A G74A U82G C85G,≤ -4.2
5,A16C G58C A60G G83U C116U,-0.784
6,A16U C27G A28U U31C G74U U82A,≤ -4.2
7,A16C A19U A73G C87A,≤ -4.2
8,A16C G59A C85G G126U,-2.76
9,A16G C43U C79U C132U,≤ -4.2
10,A16G A22G C27A A49C C57U G59C C85U C118A C129U,≤ -4.2
11,A16U C116A,-0.257
12,A16U A52G A64U U77A C87A G143C,≤ -4.2
13,A16U A19G C57A,-2.39
14,A16C A20G A24U A40G G48U G58U U77C C85U,≤ -4.2
15,A16C A26U G42U A47C U55A U90G A98G,≤ -4.2
16,A16U A120U,-2
17,A16U A120G,-2.64
18,U15G G34A C75A A150U,≤ -4.2
19,A16C A40C G83A A97G,-0.914
20,A16G C57A G86C G124U,-3.24
21,A16G U148C,-2.77
22,A16U C87A G100A,≤ -4.2
23,A16C G112U A150U,≤ -4.2
24,A16C C36A G46C G68C C93U G112U A115C A122U G143U,≤ -4.2

row,Variant,polymerase ribozyme fitness (log ratio)
1,A16U A29U U77G C85G C116U C125A U134C,≤ -4.2
2,A16U G46U G59C C76G G84U C85U U102C A138U,≤ -4.2
3,U15G G48U C54U C123A G136U,-2.93
4,A16C G88A C116G,-4.19
5,A16C A20C A39U G42C C76A C95A,≤ -4.2
6,A16U G42A U53A C85U C96G A120C,≤ -4.2
7,A16C C18U C38U A39C A49U G67A U134G,≤ -4.2
8,A16C C76G C85U G133C C149A,≤ -4.2
9,A16U C38U A60C G80U A97G,≤ -4.2
10,A16U A30C U44A G88A C105U U109A,≤ -4.2
11,A16U A22C,-2.41
12,A16G C27G U44A C79G,≤ -4.2
13,A16G A20G A120C,-1.84
14,A16U G50A C76U,-3.4
15,A16U A30C U61A C96U G140U,≤ -4.2
16,A16G A49U C131U,-1.5
17,A16U G50A C95G C118G,≤ -4.2
18,A16U A29C C35U A41C G86A A98U C114U G141U U145G,≤ -4.2
19,A16G C27U A28G C43U U53A C57A U82G C93U G143C,≤ -4.2
20,A16G U53A U146G,-2.19
21,A16U C38U A91U C103A,≤ -4.2
22,A16U A41G C51U G74C C95U C103U C118U G133A,≤ -4.2
23,A16U C96U,-2.07
24,A16U C69A U145G,-3.75

row,Variant,polymerase ribozyme fitness (log ratio)
1,A16G G86A,-0.891
2,A16C A26U,-2.62
3,U15G C85U C87A,≤ -4.2
4,A16G A28G G59A G80A G83C C87U,≤ -4.2
5,A16G G94A G143C,-3.22
6,A16G C43A C57G G59U G70U G88U C99U A107G,≤ -4.2
7,A16C G92C,-1.11
8,A16U A150G,-2.95
9,U15G C96A,-0.302
10,U15G C96U,-1.19
11,A16C A21C C57A G88U C103G U130G,≤ -4.2
12,A16G A21C G48C C54A G58U C93U A122G,-3.83
13,A16C G34U C93U C105U G112A,≤ -4.2
14,A16C U55A,-1.28
15,A16C C57U C129U G143A,-1.91
16,A16U A39U G84A G92U C103U C149G U151C,≤ -4.2
17,A16G C32G A41U G80C C99U A110U U127A G143A,≤ -4.2
18,A16U C57A C99G U104C,-3.73
19,A16G G48A A122U C149U,-3.58
20,A16G C54U,-0.601
21,A16U A64U A66U G94A C108U A150G,≤ -4.2
22,A16U A17C U44C U56A C76U G88U C114A,≤ -4.2
23,U15G G42A C75A G83U A122U G128A,≤ -4.2
24,U15G G71U,-2.28

row,Variant,polymerase ribozyme fitness (log ratio)
1,A16U A19G U31A C38U G42C U44G G59U C96G,≤ -4.2
2,A16U C18G A21G A22U C51U U53G G68A G81C,≤ -4.2
3,A16G A20C C69G C149G,-4.02
4,U15G G84A C96A A119U,-2.08
5,U15G G92U A147U,0.901
6,A16C C85U A106U G126A,-3.28
7,A16G C27U,-2
8,A16G A26U C85A C105G C114U G141C U151C,≤ -4.2
9,A16U A39G A89C C95U G152C,≤ -4.2
10,A16U A22C C27A C125A A150G,≤ -4.2
11,A16C C87U G128U,≤ -4.2
12,A16G U33G G81A C87G G100A,≤ -4.2
13,A16U C85A,-2.74
14,A16U C85G,-3.36
15,A16C G42U G58C G84U G100A U102G A137U U144C,≤ -4.2
16,A16G C43A U55A G80C G117U G133C,≤ -4.2
17,A16C U31C A37C A40C C95G G100A C114U,≤ -4.2
18,A16G C149G,-3.97
19,U15G C69A C96U,-1.09
20,A16G U31A A39U C132U G136A,-3.4
21,A16C G84U A120G,-2.78
22,A16C G25U U61G G88U C93U G136A A147C U148C,≤ -4.2
23,A16G A17G C57U A64C A91U C95U C118G G124A G126A G133C,≤ -4.2
24,A16U A52G U104G U134G,≤ -4.2

row,Variant,polymerase ribozyme fitness (log ratio)
1,A16U C57A,-1.96
2,A16G C38A U56G C96U C103U C149G,≤ -4.2
3,A16C C51A A89U G94A A98U,-3.95
4,A16U A21G C85G C93A C116A A150U,≤ -4.2
5,A16C U44G A47G C51A A60C U77A,≤ -4.2
6,A16G C69U C85U C131G A142U,≤ -4.2
7,A16G C38U G50C U55A C57U C85G A120G A137U G143C,≤ -4.2
8,A16C G62C,-2.47
9,A16C U45G C114U,-3.74
10,A16G A22U A47C C95A C96U,-3.89
11,A16G A17C U31A U55G C57G A115C U135A,-3.86
12,A16G A30U U90G G152U,≤ -4.2
13,A16G A23U C72A C87A C93U G126A,≤ -4.2
14,A16C U56A C103A G124U G143C,≤ -4.2
15,A16G A30U C38A C96G A97C C105G A107U A110U,≤ -4.2
16,A16G G83U A107U A142C,≤ -4.2
17,A16G A37U U134G,-3.68
18,U15G G94C A115C C116G,-3.85
19,A16U C79G,≤ -4.2
20,A16G A26U U31C U82A A106U C131A U139G G141C,≤ -4.2
21,A16G A19G G84U A122U,-3.73
22,A16G A49U C63U C72U G88C G141C,≤ -4.2
23,A16U C27G A30U C35G G83A C103U,≤ -4.2
